Results from article doi:10.1101/2023.08.08.549832.

Experiments:
Experiment in all cases: FRET or BRET
[1] = biological target: PTCH1-eGFP (enhanced green fluorescent protein-tagged human PTCH1) (human) (UniProt Q13635)
[2] = biological target: PTCH2-eGFP (not stated (printed entry Q9Y6C5 is human PTCH2)) (UniProt Q9Y6C5)
[3] = biological target: PTCH1-eGFP (enhanced green fluorescent protein-tagged human PTCH1) (human) (UniProt Q13635); remark: listed apart in the source

PTCH1-mCherry (from UniProt Q13635 1-1447) (receptor)
net increase in GFP signal after mCherry photobleaching [1]: > 10% | magnitude of GFP signal change against PTCH1 homodimers [2]: 50 % lower

B1: PTCH2-mCherry (receptor)
chain: MTRSPPLRELPPSYTPPARTAAPQILAGSLKAPLWLRAYFQGLLFSLGCGIQRHCGKVLFLGLLAFGALALGLRMAIIETNLEQLWVEVGSRVSQELHYTKEKLGEEAAYTSQMLIQTARQEGENILTPEALGLHLQAALTASKVQVSLYGKSWDLNKICYKSGVPLIENGMIERMIEKLFPCVILTPLDCFWEGAKLQGGSAYLPGRPDIQWTNLDPEQLLEELGPFASLEGFRELLDKAQVGQAYVGRPCLHPDDLHCPPSAPNHHSRQAPNVAHELSGGCHGFSHKFMHWQEELLLGGMARDPQGELLRAEALQSTFLLMSPRQLYEHFRGDYQTHDIGWSEEQASTVLQAWQRRFVQLAQEALPENASQQIHAFSSTTLDDILHAFSEVSAARVVGGYLLMLAYACVTMLRWDCAQSQGSVGLAGVLLVALAVASGLGLCALLGITFNAATTQVLPFLALGIGVDDVFLLAHAFTEALPGTPLQERMGECLQRTGTSVVLTSINNMAAFLMAALVPIPALRAFSLQAAIVVGCTFVAVMLVFPAILSLDLRRRHCQRLDVLCCFSSPCSAQVIQILPQELGDGTVPVGIAHLTATVQAFTHCEASSQHVVTILPPQAHLVPPPSDPLGSELFSPGGSTRDLLGQEEETRQKAACKSLPCARWNLAHFARYQFAPLLLQSHAKAIVLVLFGALLGLSLYGATLVQDGLALTDVVPRGTKEHAFLSAQLRYFSLYEVALVTQGGFDYAHSQRALFDLHQRFSSLKAVLPPPATQAPRTWLHYYRNWLQGIQAAFDQDWASGRITRHSYRNGSEDGALAYKLLIQTGDAQEPLDFSQLTTRKLVDREGLIPPELFYMGLTVWVSSDPLGLAASQANFYPPPPEWLHDKYDTTGENLRIPPAQPLEFAQFPFLLRGLQKTADFVEAIEGARAACAEAGQAGVHAYPSGSPFLFWEQYLGLRRCFLLAVCILLVCTFLVCALLLLNPWTAGLIVLVLAMMTVELFGIMGFLGIKLSAIPVVILVASVGIGVEFTVHVALGFLTTQGSRNLRAAHALEHTFAPVTDGAISTLLGLLMLAGSHFDFIVRYFFAALTVLTLLGLLHGLVLLPVLLSILGPPPEVIQMYKESPEILSPPAPQGGGLRWGASSSLPQSFARVTTSMTVAIHPPPLPGAYIHPAPDEPPWSPAATSSGNLSSRGPGPATG
magnitude of GFP signal change against PTCH1 homodimers [3]: 50 % lower
